Measurements published in publication PMC7796288.

Target: Pomacea bridgesii metallothionein 2 (PbrMT2), recombinant Cd(II)-loaded preparation (Pomacea bridgesii)
Assay: native MS; ESI-TOF MS at neutral pH (7.0), running buffer 5:95 acetonitrile:ammonium acetate (15 mM); Cd-PbrMT2 production from a CdCl2-supplemented culture; dimeric species seen together with monomeric Cd8- and Cd9- species

Substance “Pomacea bridgesii metallothionein 2 (PbrMT2), recombinant Cd(II)-loaded preparation (natural protein)” has a stoichiometry N of 2.
